In patent US20220306733A1:
Changes are numbered by the printed parent chain.

B1: anti-TIGIT antibody clone 26486 (antibody, V domains shown)
VH: QVQLQESGPGLVKPSETLSLTCAVSGYSISSGYYWAWIRQPPGKGLEWIGSIYHSGSTYYNPSLKSRVTISVDTSKNQFSLKLSSVTAADTAVYYCAIEGANYYDFGYVAFDIWGQGTMVTVSS
VL: EIVMTQSPATLSVSPGERATLSCRASQSVSSNLAWYQQKPGQAPRLLIYGASTRATGIPARFSGSGSGTEFTLTISSLQSEDFAVYYCQQSPPWPRTFGGGTKVEIK
B2: anti-TIGIT antibody clone 29494 (antibody, V domains shown)
VH: QVQLQESGPGLVKPSETLSLTCTVSGGSISSGSYYLAWIRQPPGKGLEWIGSIFRSGSTYYNPSLESRVTISVDTSKNQFSLKLSSVTAADTAVYYCAIEGANFKDFGYVAFDIWGQGTMVTVSS
VL: B1 VL
B3: anti-TIGIT antibody clone 29499 (antibody, V domains shown)
VH: B2 VH with V2L, G32S, S33R, L36W, F54G, R55T, E66K, A90T, K105R
VL: B1 VL
B4: anti-TIGIT antibody clone 31288 (antibody, V domains shown)
VH: B2 VH with V2L, M120T
VL: B1 VL
B5: anti-TIGIT antibody clone 32931 (antibody, V domains shown)
VH: B2 VH with V2L, M120T
VL: B1 VL with Q27K, G50F, S91T, P92S
B6: anti-TIGIT antibody clone 26493 (antibody, V domains shown)
VH: EVQLVESGGGLVQPGRSLRLSCAASGFTFGDYAMHWVRQAPGKGLEWVSGITWNSGSIGYADSVKGRFTISRDNAKNSLYLQMNSLRAEDTALYYCAKPVPKSRGLDVWGQGTMVTVSS
VL: DIQLTQSPSSVSASVGDRVTITCRASQGISSWLAWYQQKPGKAPKLLIYGASSLQSGVPSRFSGSGSGTDFTLTISSLQPEDFATYYCQQAFYLPWTFGGGTKVEIK
B7: anti-TIGIT antibody clone 29527 (antibody, V domains shown)
VH: QVQLVESGGGVVQPGRSLRLSCAASGFTFSSSYMHWVRQAPGKGLEWVAVIGADGSNKYYADSVEGRFTISRDNSKNTLYLQMNSLRAEDTALYYCAKPVPRRRGLDVWGQGTMVTVSS
VL: B6 VL
B8: anti-TIGIT antibody clone 29523 (antibody, V domains shown)
VH: B7 VH with Q1E, S30G, S32Y, G52W, A53P, Y59L, E65K, R102K, R103S, G105A
VL: B6 VL
B9: anti-TIGIT antibody clone 29520 (antibody, V domains shown)
VH: B6 VH with E1Q, G30R, S57L, K102R, S103L
VL: B6 VL
B10: anti-TIGIT antibody clone 29513 (antibody, V domains shown)
VH: QVQLVQSGAEVKKPGSSVKVSCKASGGTFQNYAISWVRQAPGQGLEWMGVIVPIFGTANYAQKFQGRVTVTADESTSTAYMELSSLRSEDTAVYYCARLHLGQKAYYGMDVWGQGTTVTVSS
VL: DIQMTQSPSSLSASVGDRVTITCRASQSISSYLNWYQQKPGKAPKLLIYAASSLQSGVPSRFSGSGSGTDFTLTISSLQPEDFATYYCQQRYVFPPTFGGGTKVEIK

Biological target: Polyspecificity reagent (PSR): biotinylated soluble membrane proteins of CHO cells
Assay: flow cytometry, biotinylated PSR on IgG-presenting yeast

Polyspecificity Reagent (PSR) Score (0-1) | Binder
0 score 0-1 | B1
0 score 0-1 | B2
0.1 score 0-1 | B3
0 score 0-1 | B4
0 score 0-1 | B5
0 score 0-1 | B6
0.12 score 0-1 | B7
0.12 score 0-1 | B8
0.32 score 0-1 | B9
0.01 score 0-1 | B10
